Laboratory results from article doi:10.1101/509141.
Like-named read-outs stand apart in the source and are kept apart here.

Legend:
Test in all cases: BLI
[1] = biological target: Bacteriophage Sf6, whole virions (bacteriophage Sf6)
[2] = biological target: Bacteriophage Sf6, whole virions (bacteriophage Sf6); remark: listed apart in the source
[3] = biological target: Bacteriophage Sf6, whole virions (bacteriophage Sf6); remark: listed apart in the source
[4] = biological target: Bacteriophage Sf6, whole virions (bacteriophage Sf6); remark: listed apart in the source

OmpA-TM_(E.coli), transmembrane domain of E. coli outer membrane protein A (domain or fragment)
Kd [1]: 25 nM

OmpA-TM_(S.flex), transmembrane domain of S. flexneri outer membrane protein A (domain or fragment)
Kd [1]: 36 nM | Kd [2]: 89.9 nM | Kd [3]: 82.3 nM | Kd [4]: 99.6 nM

S. flexneri OmpA-TM N155E (domain or fragment)
Kd [1]: 6.9 to 65.4 nM
